Experimental data: US20190016825A1 (JIANGSU HENGRUI MEDICINE, published 2019)

B1: h001-4-WT (antibody)
heavy: not shown
light: DIVMSQSPSSLSASVGDRVTITCKSSQSLLNSRTRKNFLAWYQQKPGKSPKLLIYWASTRESGVPDRFSGSGSGTDFTLTISSLQPEDFATYYCKQSFNLFTFGQGTKLEIKRTVAAPSVFIFPPSDEQLKSGTASVVCLLNNFYPREAKVQWKVDNALQSGNSQESVTEQDSKDSTYSLSSTLTLSKADYEKHKVYACEVTHQGLSSPVTKSFNRGEC
notes: both labels are treated as one molecule; also called H001-4 IgG1 format; h001_VH.1 + h001_VL.1C
B2: h001-4-YTE (antibody, human IgG1, kappa)
heavy: QVQLVQSGAEVKKPGASVKVSCKASGYTFTDYWMHWVRQAPGQGLEWMGYINPSSGFTKYHQNFKDRVTMTRDTSISTAYMELSRLRSDDTAVYYCARQYDYDEDWYFDVWGQGTTVTVSSASTKGPSVFPLAPSSKSTSGGTAALGCLVKDYFPEPVTVSWNSGALTSGVHTFPAVLQSSGLYSLSSVVTVPSSSLGTQTYICNVNHKPSNTKVDKKVEPKSCDKTHTCPPCPAPELLGGPSVFLFPPKPKDTLYITREPEVTCVVVDVSHEDPEVKFNWYVDGVEVHNAKTKPREEQYNSTYRVVSVLTVLHQDWLNGKEYKCKVSNKALPAPIEKTISKAKGQPREPQVYTLPPSRDELTKNQVSLTCLVKGFYPSDIAVEWESNGQPENNYKTTPPVLDSDGSFFLYSKLTVDKSRWQQGNVFSCSVMHEALHNHYTQKSLSLSPGK
light: B1 light
notes: human kappa light chain; also called h001-4-IgG1-YTE

Key:
PCSK9-D374Y-BP15-His6 [1] = target: T1, PCSK9-D374Y-BP15-His6 (human, UniProt Q8NBP7 31-692, biotin on the BP15 biotin receiving peptide); assay: ELISA, bio-PCSK9-Y captured on streptavidin plate
T1 construct: also called PCSK9-Y; mutant PCSK9
Method: The binding ability of anti-PCSK9 antibodies of the present invention to PCSK9-Y was detected by measuring the amount of antibodies binding to PCSK9-Y (mutant PCSK9, SEQ ID NO: 6) fixed on the ELISA plate.
Streptavidin (sigma, CAT#54762) was diluted to 2 μg/ml with PBS and coated into 96-well ELISA plate at 4° C. overnight. The plate was washed and then blocked with Tris buffer (including 0.9 mM CaCl₂, 0.05% Tween 20 and 5% skim milk) at 37° C. for 2 hours. Then the plate was washed again and 100 μl/well of the biotin-labeled PCSK9-Y, produced in-house, (bio-PCSK9-Y, diluted with Tris buffer containing 0.9 mM CaCl₂, 0.05% Tween 20 and 1% skim milk) was added and incubated at 37° C. for 1 hour. After the wash step, different concentrations of diluted PCSK9 antibody samples were added to the plate and incubated at 37° C. for 1 hour. Then the plate was washed again and HRP-goat-anti-human (H+L) antibody (Jackson ImmunoResearch, CAT#109-035-088) was added and incubated at 37° C. for 1 hour. Then the plate was washed again and tetramethylbenzidine solution was added for development. Finally, the stop solution was added and the OD450 value was measured on the Microplate reader, and then EC50 was calculated.
The results of ELISA test for the binding ability of chimeric antibodies and back-mutated antibodies of the present invention to mutant PCSK9 are shown in table 6.

PCSK9-BP15-His6 [2] = target: T2, PCSK9-BP15-His6 (human, UniProt Q8NBP7 31-692, biotin on the BP15 biotin receiving peptide); assay: ELISA, bio-WT-PCSK9 captured on streptavidin plate
T2 construct: It holds a signal peptide (underlined in print); also called WT PCSK9; bio-WT-PCSK9
Method: The binding ability of anti-PCSK9 antibodies of the present invention to PCSK9 was detected by measuring the amount of antibodies binding to wild-type PCSK9 protein (WT PCSK9, SEQ ID NO: 5) fixed on the ELISA plate.
Streptavidin (sigma, CAT#S4762) was diluted to 2 μg/ml with PBS and coated into 96-well ELISA plate, at 4° C. overnight. The plate was washed and then blocked with Tris buffer (including 0.9 mM CaCl2, 0.05% Tween 20 and 5% skim milk) at 37° C. for 2 hours. Then the plate was washed again and 100 μl/well of the biotin-labeled PCSK9, produced in-house, (bio-WT-PCSK9, diluted with Tris buffer containing 0.9 mM CaCl2, 0.05% Tween 20 and 1% skim milk), was added and incubated at 37° C. for 1 hour. After the wash step, different concentrations of diluted PCSK9 antibody samples was added to the plate and incubated at 37° C. for 1 hour. Then the plate was washed again and HRP-goat-anti-human (H+L) antibody (Jackson ImmunoResearch, CAT#109-035-088) was added and incubated at 37° C. for 1 hour. Then the plate was washed again and tetramethylbenzidine solution was added for development. Finally, the stop solution was added and the OD450 value was measured on the Microplate reader, and then EC50 was calculated.

PCSK9-D374Y-BP15-His6 [3] = target: T1, PCSK9-D374Y-BP15-His6; assay: blocking ELISA, LDLR-FC (SEQ ID NO: 8) coated, bio-PCSK9-Y plus antibody
Method: The blocking abilities of anti-PCSK9 antibodies to the binding of LDLR-FC (SEQ ID NO: 8) to PCSK9-Y (mutant PCSK9, SEQ ID NO: 6) were detected by measuring the amount of PCSK9-Y binding to LDLR in the presence of the antibodies.
LDLR-FC was diluted to 2 μg/ml with phosphate buffer and coated in the 96-well ELISA plate (Costar, CAT#3590), then incubated at 4° C. overnight. The plate was washed and then blocked with Tris buffer (including 0.9 mM CaCl₂, 0.05% Tween 20 and 5% skim milk) at 37° C. for 2 hours. Then the plate was washed again and 100 μl/well of the mixture of biotin-labeled PCSK9-Y (bio-PCSK9-Y, diluted to final concentration of […] with Tris buffer containing 0.9 mM CaCl₂, 0.05% Tween 20 and 1% skim milk) and antibody samples (diluted with Tris buffer containing 0.9 mM CaCl₂, 0.05% Tween 20 and 1% skim milk) were added and incubated at 37° C. for 1 hour. Then the plate was washed again and horseradish peroxidase-streptavidin (sigma, CAT#S2438) was added and incubated at 37° C. for 1 hour. Then the plate was washed and tetramethylbenzidine solution was added for development. Finally, the stop solution was added and the OD450 value was measured on the Microplate reader, then IC50 was calculated.
The results of blocking test for the blocking effects of the chimeric antibodies and back-mutated antibodies of the present invention on the binding of LDLR-FC/PCSK9-Y are shown in table 7.

PCSK9-BP15-His6 [4] = target: T2, PCSK9-BP15-His6; assay: blocking ELISA, LDLR-FC (SEQ ID NO: 8) coated, bio-WT-PCSK9 plus antibody
Method: The blocking abilities of PCSK9 antibodies of the present invention to the binding of LDLR-FC (produced in-house, sequence is shown in SEQ ID NO: 8) to PCSK9 (SEQ ID NO: 5) were detected by measuring the amount of PCSK9 binding to LDLR in the presence of the antibodies.
LDLR-FC was diluted to 5 μg/ml with phosphate buffer and coated in the 96-well ELISA plate, then incubated at 4° C. overnight. The plate was washed and then blocked with Tris buffer (including 0.9 mM CaCl₂, 0.05% Tween 20 and 5% skim milk) at 37° C. for 2 hours. Then the plate was washed again and 100 μl/well of the mixture of biotin-labeled PCSK9 (bio-WT-PCSK9, diluted to the final concentration of 2 μg/ml with Tris buffer containing 0.9 mM CaCl₂, 0.05% Tween 20 and 1% skim milk) and antibody samples (diluted with Tris buffer containing 0.9 mM CaCl₂, 0.05% Tween 20 and 1% skim milk) were added and incubated at 37° C. for 1 hour. Then the plate was washed again and horseradish peroxidase-streptavidin (Sigma, CAT#52438) was added and incubated at 37° C. for 1 hour. Then the plate was washed and tetramethylbenzidine solution was added for development. Finally, the stop solution was added and the OD450 was measured on the Microplate reader, then IC50 was calculated.

PCSK9-His6 = target: T3, PCSK9-His6 (human, UniProt Q8NBP7 31-692, limits assumed); assay: BIAcore, antibody captured by human Fab capture molecule on CM5 chip, PCSK9-His6 in flow
T3 construct: also called human PCSK9 with His tag; huPCSK9
Source text: According to the method described in the Human Fab Capture Kit (Cat. #28-9583-25, GE), the human Fab capture molecule was covalently linked to the CM5 biochip (Cat. # BR-1000-12, GE) so that the antibodies to be tested were affinity captured. Then, human PCSK9 antigen (human PCSK9 with His tag: PCSK9-His6, SEQ ID NO: 1) flowed through the surface of the biochip, and the reaction signal was detected in real time using a Biacore instrument to obtain the association and dissociation curves. Finally, the affinity values were obtained by fitting and are shown at table 9 below. After each cycle of dissociation was finished in the experiment, the biochip was washed and regenerated with regeneration solution in Human Fab Capture kit (GE).

Binder | EC50 (PCSK9-D374Y-BP15-His6 [1]) [µg/mL] | EC50 (PCSK9-BP15-His6 [2]) [µg/mL] | IC50 (PCSK9-D374Y-BP15-His6 [3]) [µg/mL] | IC50 (PCSK9-BP15-His6 [4]) [µg/mL] | Kd (PCSK9-His6) [pM]
B1 | 0.0179 | 0.012 | 0.53 | 0.76 | 288
B2 |  |  |  |  | 491
